Here are results for five molecules from patent US20210070875A1.

Assay in all cases: ELISA, polypeptide coated at 1.0 µg/mL
Assay [1] deals with C5aR polypeptide-04 (UniProt P21730).
The target in assay [2] is C5aR polypeptide-05 (UniProt P21730).
The target in assay [3] is C5aR polypeptide-03 (UniProt P21730).
Assay [4] addresses C5aR extracellular N-terminus polypeptide (UniProt P21730).

B1: 8B5D1A9 (antibody, V domains shown)
VH: QVQLKQSGAELVKPGASVKISCKTSGYIFTDYYINWMKQRPGQGLEWIGKIGPGSGTTFYNEKFKGKATLTADKSSTTLYMQLSSLTAEDSAVYFCTRRGYYSSSYFYWGQGTTLTVSS
VL: DIVMTQSPSSLSVSAGEKVIMSCKSSQSLLNSERQKNYLAWYQQKPGQSPKLLIYGASTRESGVPDRFTGSGSGTDFTLTISSVQAEDLAVYYCLNDHSYPLTFGAGTKLELK
Regarding B1, the OD450 nm in assay [1] turned out to be 0.1 OD450 nm; in assay [2] it was 0.08 OD450 nm; in assay [3], 0.05 OD450 nm; in assay [4] it was 2.5 OD450 nm.

B2: 43E8F5B6 (antibody, V domains shown)
VH: EVQLQQSGPELVKPGASVKISCKASGYTFTDYYMSWMKQSHGKSLEWIGDINPNNGDNIYNQKFKGKATLTVDRSSSTAYMDLRSLTSEDSAVYYCARWYYYVSSFSYWYFDVWGTGTTVTVSS
VL: EIVLTQSPTTMAASPGEKITITCSATSSINSNYLHWYQQKPGFSPKLLIYRTSNLASGVPARFSGSGSGTSYSLTIGTMEAEDVATYYCQQGRTIPRTFGSGTKLEIK
Consider B2, for which the OD450 nm in assay [1] is 0.1 OD450 nm; in assay [2] it was 0.06 OD450 nm; in assay [3], 0.08 OD450 nm; in assay [4] it was 0.12 OD450 nm.

B3: 2A12B2B2 (antibody, V domains shown)
VH: QVQLQQPGADLVKPGASVKMSCKASGYILTTYWITWVKQRPGQGLEWIGDIHPGSGSTKYNEKFKSKATLTVDTSSSTAYMQLTRLSSEDSAVYYCARRDYWGQGTTLTVSS
VL: DIQMTQTTSSLSASLGDKVTISCRASQDISNYLSWYQQKPDGTVKLLIYWISRLHSGVPSRFSGSGSGTDFSLTISNLEQEDIATYFCQQGNSLPPTFGGGTKLEVK
For B3, the OD450 nm was found to be 2.34 OD450 nm in assay [1], 0.29 OD450 nm in assay [2], 0.06 OD450 nm in assay [3] and 0.05 OD450 nm in assay [4].

B4: 5F8E2C11 (antibody, V domains shown)
VH: QVQLRQSGPGLVQPSQSLSITCTVSGFSLTSYGVHWVRQSPGKGLEWLGVIWSGGSTDYNAAFISRLSISKDYSKSQIFLTMNSLQTDDTAIYYCARNSRLGNCFDYWGQGTTLTVSS
VL: DIVMSQSPSSLAVSAGEKVTMSCKSSQSLLNSRTRKNYLAWYQQKPGQSPKLLIYWASTRESGVPDRFTGSGSGTDFTLTISSVQAEDLAVYYCKQSYNLPAFGGGTKLEIK
Take B4: the OD450 nm was determined as 2.52 OD450 nm in assay [1], 0.56 OD450 nm in assay [2], 0.31 OD450 nm in assay [3] and 0.22 OD450 nm in assay [4].

B5: 9D5A12G7 (antibody, V domains shown)
VH: QVQLKQSGPGLVQPSQSLSITCTVSGFSLTSYGVHWVRQSPGKGLEWLGVIWSGGSTDYNAAFISRLSISKDNSKSQVFFKMNSLQADDTAIYYCARNGLLGNAMDYWGQGTSVTVSS
VL: DIVMSQSPSSLAVSAGEKVTMSCKSSQSLLSSRTRKNYLAWYQQKPGQSPKLLIYWASTRESGVPDRFTGSGSGTDFTLTISSVQTEDLAVYYCKQSYNLLTFGAGTTLELK
B5: the OD450 nm amounted to 2.46 OD450 nm in assay [1], 0.41 OD450 nm in assay [2], 0.06 OD450 nm in assay [3] and 0.06 OD450 nm in assay [4].
